Measurements from patent publication US20180208680A1 (published 2018).

T1: BoNT/C1 holotoxin (Clostridium botulinum, UniProt P18640 2-1291)
T1 sequence: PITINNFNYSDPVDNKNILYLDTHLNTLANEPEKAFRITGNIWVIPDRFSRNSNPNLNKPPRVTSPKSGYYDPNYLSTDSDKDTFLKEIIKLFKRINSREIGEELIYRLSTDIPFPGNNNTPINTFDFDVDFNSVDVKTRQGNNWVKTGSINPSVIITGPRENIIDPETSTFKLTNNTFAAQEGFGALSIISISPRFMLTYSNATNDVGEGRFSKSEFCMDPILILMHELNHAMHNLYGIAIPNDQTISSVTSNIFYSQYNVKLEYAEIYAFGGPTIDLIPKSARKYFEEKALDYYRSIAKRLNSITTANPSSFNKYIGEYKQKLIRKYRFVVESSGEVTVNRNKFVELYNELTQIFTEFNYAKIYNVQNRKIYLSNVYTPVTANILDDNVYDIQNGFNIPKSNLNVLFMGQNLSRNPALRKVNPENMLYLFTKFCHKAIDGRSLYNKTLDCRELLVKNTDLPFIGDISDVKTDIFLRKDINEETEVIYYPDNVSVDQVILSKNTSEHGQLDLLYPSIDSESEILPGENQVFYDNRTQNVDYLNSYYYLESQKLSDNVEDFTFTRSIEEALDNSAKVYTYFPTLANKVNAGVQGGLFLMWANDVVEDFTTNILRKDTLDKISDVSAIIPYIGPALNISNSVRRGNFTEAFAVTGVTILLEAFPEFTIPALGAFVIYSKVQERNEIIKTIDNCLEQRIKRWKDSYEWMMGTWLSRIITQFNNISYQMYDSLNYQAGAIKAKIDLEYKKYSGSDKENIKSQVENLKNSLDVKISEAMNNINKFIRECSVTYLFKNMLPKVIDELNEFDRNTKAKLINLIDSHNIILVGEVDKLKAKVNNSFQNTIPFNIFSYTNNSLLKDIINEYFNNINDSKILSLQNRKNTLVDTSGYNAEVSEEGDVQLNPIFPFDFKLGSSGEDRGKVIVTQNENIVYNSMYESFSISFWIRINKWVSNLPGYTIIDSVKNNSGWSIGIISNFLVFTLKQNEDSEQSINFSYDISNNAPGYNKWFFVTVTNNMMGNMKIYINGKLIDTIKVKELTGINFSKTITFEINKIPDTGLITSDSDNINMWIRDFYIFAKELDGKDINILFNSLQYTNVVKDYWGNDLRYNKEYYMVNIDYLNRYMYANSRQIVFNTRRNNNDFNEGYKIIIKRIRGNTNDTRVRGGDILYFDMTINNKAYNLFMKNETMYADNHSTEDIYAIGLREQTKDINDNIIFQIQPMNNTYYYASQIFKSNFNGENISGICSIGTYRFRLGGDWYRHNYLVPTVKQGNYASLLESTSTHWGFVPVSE


Assays:
BoNT/C1 holotoxin [1] = target: T1, BoNT/C1 holotoxin; experiment: yeast scFv FACS
BoNT/DC mosaic toxin [2] = target: T2, BoNT/DC mosaic toxin (Clostridium botulinum); experiment: yeast scFv FACS
BoNT/C1 holotoxin [3] = target: T1, BoNT/C1 holotoxin; experiment: yeast scFv FACS; remark: listed apart in the source
BoNT/DC mosaic toxin [4] = target: T2, BoNT/DC mosaic toxin; experiment: IgG KinExA
BoNT/C1 holotoxin [5] = target: T1, BoNT/C1 holotoxin; experiment: IgG KinExA

Binder | Kd (BoNT/C1 holotoxin [1]) [nM] | Kd (BoNT/DC mosaic toxin [2]) [nM] | Kd (BoNT/C1 holotoxin [3]) [nM] | Kd (BoNT/DC mosaic toxin [4]) [nM] | Kd (BoNT/C1 holotoxin [5]) [nM]
4C4 scFv (scFv, V domains shown) VH: QVQLVESGPGLVKPSQTLSLTCSVSGASINNSPYFWNWFRQFPGKGLEWIGYIYWSGSTNYNPSLKSRLAMSVDTSKNQFSLKLTSATAADTAVYYCARDQGGGTVVKENWFDPWGQGTLVTVSS VL: DIVMTQSPSSLSASVGDRLTMTCQASQDIGKHLNWYQQKAGKPPKLLIYGASNLKTGVPSRFSAGVSWTDFTFTISNVQPEDVATYYCQQSYSTPPTFGQGTKVEIKR | 2.6 | 0.58 | 3 | – | –
4C4.2 IgG (antibody, V domains shown) VH: QVQLVESGPGLVKPSQTLSLTCSVSGASINNSPYFWNWFRQFPGKGLEWIGYIYWSGSTNYNPSLKSRLAMSVDTSKNQFSLKLTSATAADTAVYYCARDQGGGTVVKENWFDPWGQGTLVTVSS VL: DIQMTQSPSTLSASVGDRVTITCRASQSIGTYLNWYQQKPGRAPTLLVSRTSNLHTGVPSRFSGDGSGSHFSLTIDSLQPEDFATYYCQQSHTSPVTFGQGTKVEIK | – | – | – | 0.126 | 0.035
4C4.1 IgG (antibody, V domains shown) VH: QVQLVESGPGLVKPSQTLSLTCSVSGASINNSPYFWNWFRQFPGKGLEWIGYIYWSGSTNYNPSLKSRLAMSVDTSKNQFSLKLTSATAADTAVYYCARDQGGGTVVKENWFDPWGQGTLVTVSS VL: ETTLTQSPSSLSASVGDRVSITCRASQSISNYLNWYQQKPGKAPKLLIYAASSLQSGVPSRFSGSGSGTDFTLTISSLQPEDFATYYCQQSYSDPPTFGQGTKVEIK | – | – | – | 0.058 | 0.539
4C4 IgG (antibody, V domains shown) VH: QVQLVESGPGLVKPSQTLSLTCSVSGASINNSPYFWNWFRQFPGKGLEWIGYIYWSGSTNYNPSLKSRLAMSVDTSKNQFSLKLTSATAADTAVYYCARDQGGGTVVKENWFDPWGQGTLVTVSS VL: DIVMTQSPSSLSASVGDRLTMTCQASQDIGKHLNWYQQKAGKPPKLLIYGASNLKTGVPSRFSAGVSWTDFTFTISNVQPEDVATYYCQQSYSTPPTFGQGTKVEIK | – | – | – | 0.577 | 0.835
4C4.2 scFv (scFv, V domains shown) VH: QVQLVESGPGLVKPSQTLSLTCSVSGASINNSPYFWNWFRQFPGKGLEWIGYIYWSGSTNYNPSLKSRLAMSVDTSKNQFSLKLTSATAADTAVYYCARDQGGGTVVKENWFDPWGQGTLVTVSS VL: DIQMTQSPSTLSASVGDRVTITCRASQSIGTYLNWYQQKPGRAPTLLVSRTSNLHTGVPSRFSGDGSGSHFSLTIDSLQPEDFATYYCQQSHTSPVTFGQGTKVEIKR | – | 0.13 | 1.1 | – | –
4C4.1 scFv (scFv, V domains shown) VH: QVQLVESGPGLVKPSQTLSLTCSVSGASINNSPYFWNWFRQFPGKGLEWIGYIYWSGSTNYNPSLKSRLAMSVDTSKNQFSLKLTSATAADTAVYYCARDQGGGTVVKENWFDPWGQGTLVTVSS VL: ETTLTQSPSSLSASVGDRVSITCRASQSISNYLNWYQQKPGKAPKLLIYAASSLQSGVPSRFSGSGSGTDFTLTISSLQPEDFATYYCQQSYSDPPTFGQGTKVEIKR | – | 0.06 | 1.5 | – | –
4C10 scFv (scFv, V domains shown) VH: QVQLVESGGGAVQPGESLRLSCAASGFTFSGFDMHWVRQSPGRGLEWVARISHDGSMADYADSLRGRFTISRDNPKNTLYLHMNSLRVEDTALYYCAKDRWRSGSYPAFEKWGQGTMVTVSS VL: QSVPTQPASVSGSPGQSITISCTGTSSDVGAYNYVSWYQQHPGKAPKLMIYDVSDRPSGVSNRFSGSKSGNTASLTISGLQAEDEADYYCSSYTSSSTYVFGTGTKLTVL | – | 107 | – | – | –
8DC1.2 IgG (antibody, V domains shown) VH: QVTLKESGGGLVQPGRSLTLSCPLSGFTSSDYVLHWVRQAPGTGLDWVAVISSDGTKAYYGDSVKGRFTISRDTSKNTLLLQMNSPRAEDTAIYYCAISTRGPFDIWGHGTMVTVSS VL: DIQMTQSPSSLSAFVGDRITITCRASRGVSNYLAWYQQKPGKAPKLLIYAASSLQSGVPSRFSGSGSGTEFTLTISGLQPDDFATYYCQQYNAYPLTFGGGTKLEIK | – | – | – | – | 0.736
